Here are results for 59 variants from the MegaScale stability set (Tsuboyama et al. 2023).

To fix the notation:
B1: HEEH_KT_rd6_3632 (parent)
chain: DAEELIELVERALKEGREIILLGVRITSEEAGKWFIEWIRRFL

This data set covers variants of B1. The data set can be described thus: folding stability dG (cDNA display proteolysis); higher = more stable. Particulars: PBS, room temperature.
With DAEELIELVERALKEGREIILLGVRITSEEAGKWFIEWIFRFL, the “folding stability dG” value worked out at 3.87 kcal/mol.
Regarding DAEELIELVERALKEGREIILLGVRITSEEAGKWFIGWIRRFL, the “folding stability dG” value worked out at 3.42 kcal/mol.
Turning to DAEELIELVERALKEGREIILLGVRITSEEAGKWFIVWIRRFL, the “folding stability dG” value turned out to be 3.79 kcal/mol.
Consider DAEELIELVERALKEGREIILLGVRITSEEAGKWFIFWIRRFL, for which the “folding stability dG” value turned out to be 3.7 kcal/mol.
Take DAEELIELVERALKEGREIILLGVRITSEEAGKWFILWIRRFL: the “folding stability dG” value was found to be 3.93 kcal/mol.
As for DAEELIELVERALKEGREIILLGVRITSEEAGKWFIDWIRRFL, the “folding stability dG” value amounted to 3.57 kcal/mol.
In the case of DAEELIELVERALKEGREIILLGVRITSEEAGKWFIMWIRRFL, the “folding stability dG” value stood at 3.83 kcal/mol.
DAEELIELVERALKEGREIILLGVRITSEEAGKWFIIWIRRFL: the “folding stability dG” value came out at 3.87 kcal/mol.
Consider DAEELIELVERALKEGREIILLGVRITSEEAGKWFIPWIRRFL, for which the “folding stability dG” value is 2.92 kcal/mol.
DAEELIELVERALKEGREIILLGVRITSEEAGKWFIWWIRRFL: the “folding stability dG” value was 3.88 kcal/mol.
With DAEELIELVERALKEGREIILLGVRITSEEAGKWFIYWIRRFL, the “folding stability dG” value is 3.92 kcal/mol.
As to DAEELIELVERALKEGREIILLGVRITSEEAGKWFIAWIRRFL, the “folding stability dG” value was 3.81 kcal/mol.
For the variant DAEELIELVERALKEGREIILLGVRITSEEAGKWFIHWIRRFL, the “folding stability dG” value amounted to 3.46 kcal/mol.
For DAEELIELVERALKEGREIILLGVRITSEEAGKWFINWIRRFL, the “folding stability dG” value came out at 3.62 kcal/mol.
As for DAEELIELVERALKEGREIILLGVRITSEEAGKWFITWIRRFL, the “folding stability dG” value stood at 3.47 kcal/mol.
With DAEELIELVERALKEGREIILLGVRITSEEAGKWFISWIRRFL, the “folding stability dG” value stood at 3.52 kcal/mol.
On to DAEELIELVERALKEGREIILLGVRITSEEAGKWFIKWIRRFL, for which the “folding stability dG” value came out at 3.66 kcal/mol.
DAEELIELVERALKEGREIILLGVRITSEEAGKWFIRWIRRFL: the “folding stability dG” value is 3.62 kcal/mol.
For DAEELIELVERALKEGREIILLGVRITSEEAGKWFIQWIRRFL the value was 3.67 kcal/mol; for DAEELIELVERALKEGREIILLGVRITSEEAGKWFYEWIRRFL, 3.46 kcal/mol; for DAEELIELVERALKEGREIILLGVRITSEEAGKWFWEWIRRFL, 3.76 kcal/mol.
For DAEELIELVERALKEGREIILLGVRITSEEAGKWFIEWIRAFL, the “folding stability dG” value stood at 3.62 kcal/mol.
Regarding DAEELIELVERALKEGREIILLGVRITSEEAGKWFIEWIRHFL, the “folding stability dG” value was found to be 3.64 kcal/mol.
As for DAEELIELVERALKEGREIILLGVRITSEEAGKWFIEWIRCFL, the “folding stability dG” value was 4.34 kcal/mol.
On to DAEELIELVERALKEGREIILLGVRITSEEAGKWFIEWIRKFL, for which the “folding stability dG” value was found to be 3.76 kcal/mol.
On to DAEELIELVERALKEGREIILLGVRITSEEAGKWFIEWIRIFL, for which the “folding stability dG” value was 3.74 kcal/mol.
Regarding DAEELIELVERALKEGREIILLGVRITSEEAGKWFIEWIRNFL, the “folding stability dG” value was found to be 3.57 kcal/mol.
On to DAEELIELVERALKEGREIILLGVRITSEEAGKWFIEWIRYFL, for which the “folding stability dG” value is 3.81 kcal/mol.
Turning to DAEELIELVERALKEGREIILLGVRITSEEAGKWFIEWIRVFL, the “folding stability dG” value worked out at 3.7 kcal/mol.
For DAEELIELVERALKEGREIILLGVRITSEEAGKWFIEWIRGFL the value was 3.45 kcal/mol; for DAEELIELVERALKEGREIILLGVRITSEEAGKWFIEWIRQFL, 3.6 kcal/mol; for DAEELIELVERALKEGREIILLGVRITSEEAGKWFIEWIRDFL, 3.05 kcal/mol.
DAEELIELVERALKEGREIILLGVRITSEEAGKWFIEWIRSFL: the “folding stability dG” value worked out at 3.72 kcal/mol.
Turning to DAEELIELVERALKEGREIILLGVRITSEEAGKWFIEWIREFL, the “folding stability dG” value was 3.37 kcal/mol.
Next, DAEELIELVERALKEGREIILLGVRITSEEAGKWFIEWIRFFL: 3.95 kcal/mol; DAEELIELVERALKEGREIILLGVRITSEEAGKWFIEWIRWFL: 4.14 kcal/mol.
Regarding DAEELIELVERALKEGREIILLGVRITSEEAGKWFIEWIRMFL, the “folding stability dG” value is 3.93 kcal/mol.
Regarding DAEELIELVERALKEGREIILLGVRITSEEAGKWFIEWIRPFL, the “folding stability dG” value stood at 2.84 kcal/mol.
Regarding DAEELIELVERALKEGREIILLGVRITSEEAGKWFIEWIRLFL, the “folding stability dG” value was found to be 3.81 kcal/mol.
Regarding DAEELIELVERALKEGREIILLGVRITSEEAGKWFIEWIRTFL, the “folding stability dG” value was 3.63 kcal/mol.
For DAEELIELVERALKEGREIILLGVRITSEEAGKWFIEFIRRFL, the “folding stability dG” value came to 3.65 kcal/mol.
Consider DAEELIELVERALKEGREIILLGVRITSEEAGKWFIEIIRRFL, for which the “folding stability dG” value worked out at 3.2 kcal/mol.
DAEELIELVERALKEGREIILLGVRITSEEAGKWFIEGIRRFL: the “folding stability dG” value came out at 2.34 kcal/mol.
With DAEELIELVERALKEGREIILLGVRITSEEAGKWFIEKIRRFL, the “folding stability dG” value was 2.86 kcal/mol.
Take DAEELIELVERALKEGREIILLGVRITSEEAGKWFIEMIRRFL: the “folding stability dG” value was 3.32 kcal/mol.
Regarding DAEELIELVERALKEGREIILLGVRITSEEAGKWFIEHIRRFL, the “folding stability dG” value is 2.82 kcal/mol.
For DAEELIELVERALKEGREIILLGVRITSEEAGKWFIEPIRRFL the value was 2.26 kcal/mol; for DAEELIELVERALKEGREIILLGVRITSEEAGKWFIETIRRFL, 2.79 kcal/mol; for DAEELIELVERALKEGREIILLGVRITSEEAGKWFIEEIRRFL, 2.62 kcal/mol.
As for DAEELIELVERALKEGREIILLGVRITSEEAGKWFIELIRRFL, the “folding stability dG” value turned out to be 3.42 kcal/mol.
Regarding DAEELIELVERALKEGREIILLGVRITSEEAGKWFIEYIRRFL, the “folding stability dG” value came out at 3.37 kcal/mol.
For the variant DAEELIELVERALKEGREIILLGVRITSEEAGKWFIEVIRRFL, the “folding stability dG” value was 2.96 kcal/mol.
As for DAEELIELVERALKEGREIILLGVRITSEEAGKWFIEAIRRFL, the “folding stability dG” value is 2.95 kcal/mol.
Take DAEELIELVERALKEGREIILLGVRITSEEAGKWFIENIRRFL: the “folding stability dG” value is 2.8 kcal/mol.
As for DAEELIELVERALKEGREIILLGVRITSEEAGKWFIECIRRFL, the “folding stability dG” value is 3.94 kcal/mol.
As for DAEELIELVERALKEGREIILLGVRITSEEAGKWFIEQIRRFL, the “folding stability dG” value was found to be 2.96 kcal/mol.
For DAEELIELVERALKEGREIILLGVRITSEEAGKWFIEDIRRFL the value was 2 kcal/mol.
For DAEELIELVERALKEGREIILLGVRITSEEAGKWFIESIRRFL the value was 2.71 kcal/mol.
With DAEELIELVERALKEGREIILLGVRITSEEAGKWFIERIRRFL, the “folding stability dG” value was 2.89 kcal/mol.
